The record followed here is a protein production outcome set (Wang et al. 2014).
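Further: failed if final PepcDB status was selected cloned or expressed and not failed if soluble or beyond.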

The data set is described as follows: label from the status in PepcDB records.
Regarding “MSLANQTTKTLGLVMPSSASKAFQNPFFPEVIRGISSFAHVEGYALYMSTGETEEEIFNGVVKMVQGRQIGGIILLYSRENDRIIQYLHEQNFPFVLIGKPYDRKDEITYVDNDNYTAAREVAEYLISLGHKQIAFIGGGSDLLVTRDRLAGMSDALKLADIVLPKEYILHFDFSRESGQQAVEELMGLQQPPTAIMATDDLIGLGVLSALSKKGFVVPKDVSIVSFNNALLSEIASPPLSTVDVNIYQLGYEAAKALVDKVENAESTAKCIIIPHKLLKRQTCEGHHHHHH”, the protein production result is listed as “not failed”.

On to “YSGSQAPGGIQEIVAMSPELDTYSITKRVKEVLTDNNLGQRLFGESILGLTQGSVSDLLSRPKPWHKLSLKGREPFVRMQLWLNDPHNVEKLRDMKKL”, for which the protein production result is reported as “not failed”.

Consider “MYIQPLNPTGNVGLTILASLTPIIALLILLAGLRITAWLATLIGSIITILVATFVWGTPIIQVSYAWLIGALVGTWAISWIVFWGLTIYNTLVLTGKFDAFRDWIVRNSTNDARVQAIVLAWSLGALFEGLVGFGYPWAFIAPLLIYLGFDDLKALQVSALANNAPVSFGALGTPIIILASVTGLPLLFISSSVAKVVAILALLPPWILLYLVDKWRGIREAWPIAILGSLSYILGQYPVASFIGPYLPDITGSLISFVILLLFLRVWRPKRVLSLRSVQPNGGESKKYSTKDVIEALSAFIVLIIVVTLWTGPWSPLTKFSLVTLSQTAYSSLLHKNVGVSFAFNPFVAGTSILVSWIIISLVLRASPRIMGEAIKRSFHQYWGGILTGIFVVGLAYVFNFSGMAYSLAWKTSDLGIAFIIVSPLFGWIGCALSGSNTSTNALFGAFQVTTARLTGLPVGLPPALNSVGAELAKPVAPQTASAGVSTTKYVRKEGIVIRKNLPWAIGILIYLILIGVLYAFLAPSLFVH”, for which the protein production entry is given as “failed”.

Turning to “HQIVHVRGDSETDLEALFNAVMNPKTANVPQTVPMRLRKLPDSFFKPPEPKSHSRQASTDAGTAGALTPQHVRAHSSPASLQLGAVSPGTLTPTGVVSGPAATPTAQHLRQSS”, the protein production result is reported as “failed”.

As for “MAAPEAEVLSSAAVPDLEWYEKSEETHASQIELLETSSTQEPLNASEAFCPRDCMVPVVFPGPVSQEGCCQFTCELLKHIMYQRQQLPLPYEQLKHFYRKPSPQAEEMLKKKPRATTEVSSRKCQQALAELESVLSHLEDFFARTLVPRVLILLGGNALSPKEFYELDLSLLAPYSVDQSLSTAACLRRLFRAIFMADAFSELQAPPLMGTVVMAQGHRNCGEDWFRPKLNYRVPSRGHKLTVTLSCGRPSIRTTAWEDYIWFQAPVTFKGFRE”, the protein production result was “not failed”.

As for “MNLDLGSTVRGYESDKDTFPQSKGVSSSQKEQHSQLNQTKIAYEQRLLNDLEDMDDPLDLFLDYMIWISTSYIEVDSESGQEVLRSTMERCLIYIQDMETYRNDPRFLKIWIWYINLFLSNNFHESENTFKYMFNKGIGTKLSLFYEEFSKLLENAQFFLEAKVLLELGAENNCRPYNRLLRSLSNYEDRLREMNIVENQNSVPDSRERLKGRLIYRTAPFFIRKFLTSSLMTDDKENRANLNSNVGVGKSAPNVYQDSIVVADFKSETERLNLNSSKQPSNQRLKNGNKKTSIYADQKQSNNPVYKLINTPGRKPERIVFNFNLIYPENDEEFNTEEILAMIKGLYKVQRRGKKHTEDYTSDKNRKKRKLDVLVERRQDLPSSQPPVVPKSTRIEVFKDDDNPSQSTHHKNTQVQVQTTTSILPLKPVVDGNLAHETPVKPSLTSNASRSPTVTAFSKDAINEVFSMFNQHYSTPGALLDGDDTTTSKFNVFENFTQEFTAKNIEDLTEVKDPKQETVSQQTTSTNETNDRYERLSNSSTRPEKADYMTPIKETTETDVVPIIQTPKEQIRTEDKKSGDNTETQTQLTSTTIQSSPFLTQPEPQAEKLLQTAEHSEKSKEHYPTIIPPFTKIKNQPPVIIENPLSNNLRAKFLSEISPPLFQYNTFYNYNQELKMSSLLKKIHRVSRNENKNPIVDFKKTGDLYCIRGELGEGGYATVYLAESSQGHLRALKVEKPASVWEYYIMSQVEFRLRKSTILKSIINASALHLFLDESYLVLNYASQGTVLDLINLQREKAIDGNGIMDEYLCMFITVELMKVLEKIHEVGIIHGDLKPDNCMIRLEKPGEPLGAHYMRNGEDGWENKGIYLIDFGRSFDMTLLPPGTKFKSNWKADQQDCWEMRAGKPWSYEADYYGLAGVIHSMLFGKFIETIQLQNGRCKLKNPFKRYWKKEIWGVIFDLLLNSGQASNQALPMTEKIVEIRNLIESHLEQHAENHLRNVILSIEEELSHFQYKGKPSRRF”, the protein production result was “failed”.

Take “MSNMVEVPIFIAILSFIVMCIGELLAYYSVSLKYKYEFEAISFGFIFGVATLILIPKSYSNMFVLYVILGMITVYLIEKYLAYCPLSKKYCVECDNLEENRIKFIYPISFFIHTFIDGLIIAVSYISEIGLPLYLAILMHKLPAGFVLISPLKGVYKNPLYPGVFVSFGTVLGTIVGLVTLKDVSTKILLAFSGGVFLGAFLMLAPHIYEHKEEKTFLYILLGYILVGIIALH”: the protein production entry is recorded as “failed”.

Consider “MSNNEPSSLKQSIKLAWPISLQSILVTMLGMSDIMMVGHLGDTAVASVGLGNRIQFVFLIILAGLASGVGTLSAQHFGAGQIGVIRQIIVKTLVIAAGILLPILLITFLFAGNIMGIATTDPSVINTGTSYLWLTMPSLIFVVVVMIFENALRGLGQVIFPMFISIIAIITNIILNYWLIKGGLGIEPMGVIGAALATLLARALHALLILTYLAKVKHSIFPTTFFCADFYNKQAWTKLLTLVWPMMLSFGVWSLGTFVYQLIYGRIGTQELAVMSLLAPIEGLLVSFFFGFASACAILVGQRLGKNEFSNAWSLAKNYAISAPIITFLLALILLQYQYLVFMPFSNLSSETITLSQEILVLICFGTCLKVFNMTIAMGILRAGGDNKYCMFIDISGMWIISIPLTFMAAFYFMLPLYWVALIAYSEEIIKAVMFIFRMKTRHWLKNLTAESMA”, for which the protein production entry is reported as “failed”.

As for “MKRKMENMKYTMSYIAKNFRVALMLSLMMLLCSCSSEDKLELHKGATLPIMQGIADNVPYIQSVEKELTYDLYDGVRITDVIFTYCAKPTRMIIAEVDLNKNVTIVTSTPDNKPEVGKILQQVTVQAEKAEAAGRKVILGTNGDFYSKKNDLWIPGGLFYKDGVAIKTEIGWEADHVFYMLKDGTAHITSVPEFKLVEREVVHAIGGWQRMVQDGEVVKNFTVNDNAMQFHPRTFVGVSADNRKVYLFVVDGRQPEYSNGMRLEDMMLLCQGAGCYQAFNMDGGGSTTMVRRVEKGSSVSFEVMNQPSDNPARSVINGLQVIEKTN”, the protein production result is reported as “failed”.

Consider “MQSVSSMSSMDHFWLVIFCACVAFIPRFFPLLFFTKRKIPKWFNEWMRFVPVSLFTALVVKSVFIDSKYAVITSGNLGMIISAILVGFVAYRTRSMTLSVVIGLVSVMIFVLLIHI”, for which the protein production entry is given as “failed”.

Consider “MHFSKEHINALETRTRAHFINSLSGFKSANLIGTQDRQGNTNLSIVSSVIHLGANPPLMGMIIRPHSVPRHTFENIMQTGLYTINHVNQSIYEQAHQTSARYDKDESEFEATGLTPEYLSDFCAPFVKESRLKYSVKLVEHQHLAINGTEFVIGEIVDVYVDDNAVQTDGFIDLQAIDTVAISGLDCYYTGDKLARLPYAKK”, for which the protein production entry is “not failed”.

As to “SDSPEQESADDALKRIVDGFQHFRREVFPEQQALFKKLANSQRPRAMFITCADSRIVPELITQSSPGDLFVTRNVGNVVPPYGQMNGGVSTAIEYAVLALGVHHIIVCGHSDCGAMRAVLDPQTLERMPTVKAWLRHAEVARTVVADNCDCGASHDTLGVLTEENVVAQLDHLRTHPSVASRLASGQLFIHGWVYDIESAQIRAYDAKQGRFLPLDGEHPVPMATPAPRYLSS”, the protein production entry is given as “failed”.

As for “MDTRKNVSGAERKIWSLIRDCSGKLEGVTETSVLEVLLIVSRVLGIRKEDLFLKDLGVSPTEEKRILELVEKRASGYPLHYILGEKEFMGLSFLVEEGVFVPRPETEELVELALELIRKYGIKTVADIGTGSGAIGVSVAKFSDAIVFATDVSSKAVEIARKNAERHGVSDRFFVRKGEFLEPFKEKFASIEMILSNPPYVKSSAHLPKDVLFEPPEALFGGEDGLDFYREFFGRYDTSGKIVLMEIGEDQVEELKKIVSDTVFLKDSAGKYRFLLLNRRSS”, the protein production result is “not failed”.

As for “MVGADLLCGSAWVPALWLNLCNLGVVVTLWQLLSRLPRMHRRMRSPHGVLSVFAACAAAAMVAASMAAVMAAPWFEQSLRATWLAWFSEQFSTGVLVLPVLLTAPSVRALVRGGAQPIRLAPLLVLLASLAFSIAFGGPGAIAFPIAALLWCAWTYSPFLVSLLTLTAGSTLIVAVAQNLMHFSVPQSEPGVTTLMSARLGIAMLVLGPLVVACVSQANRSLMARLAHQATVDHLTGVLTRSAFTRRANALLESRQQHAQALPLTLMMLDIDHFKSINDAHGHAVGDQVLRQFASTLQDQLHNDELIARLGGEEFVVILPGLAPERANFTAERLRRAIQDLHVTQADQRLQITVSIGVAGCDADMPAPSLDELLASADQALYRAKARGRNRVEQAEAQRLVI”, the protein production entry is on record as “failed”.

“MTNNSTKVCVLLATYNGTKWCLDQVKSILNQEDVNLEVFVSDDLSSDSTTDLLALLNDSRIHILASSYKFGSACQNFFRLVRDVDFSEYDYIAFADQDDLWNPNKLSYSIEQLNAHCADAFSSNVTAFWPDGRARLIVKDQPQREWDFLFESAGPGCTFVLTKKLACNLANFLHNNYEKTKGVALHDWFTYAFARSNSYSWWIDSQPTMMYRQHESNEFGVNSGVTAALSRFRKTSNGWYRNQVILIGDLVGAEDSWPIKRMRRFSLLDRMLLLFNVFAFRRSFRDRIALFFLLLLPQKKLEHHHHHH”: the protein production result is given as “not failed”.

For “MAQVINEMDVPSHSFVFHGTGERYFLICVVNVLLTIITLGIYLPWALMKCKRYLYANMEVNGQRFSYGITGGNVFFSCLVFVFFYFAILMTVSADMPLIGCVLTLSLLVLLIFMAAKGLRYQALMTSLNGVRFSFNCSMKGVWWVTFFLPILMAIGMGTVFFISTKMLHANSSSSVIVSVVLMAIVGIVSIGIFNGTLYSLVMSFLWSNTSFGIHRFKVKLDTAYCIKYAILAFLALLPFLAVAGYIIFDQILNAYDSSVYANDDIENLQQFMEMQRKMIIAQLIYYFGIAVSTSYLTVSLRNHFMSNLSLNDGRIRFRSTLTYHGMLYRMCALVVISGITGGLAYPLLKIWMIDWQAKNTYLLGDLDDLPLINKEEQPDKGFLASISRGIMPSLPFL”, the protein production entry was “failed”.

As to “MLKKLAGALRTLMSVPADNPRLLEAQYVALSRQLPLMYFVLLVNTWALAFTHRETAPVWLTLLVPVLLTVICGIRARKWLLTVNRPPPAAATILATLRGTNSLAGVIAAGFAAWSLSLYPYGGPYAQAHVAFFMGITVIVCIFCMMHLRPAALTTAVVVNTAFVIFFASTHNLIFIATAVNIVLVSIGMLIILHHQYRDFTSLVDVQVRTEQLSNENLLLANKDSLTGLPNRRQFFQTLDAAMSEALALRSKLAVGVLDLDGFKPVNDLYGHRTGDRLLMLVAERLNSVASNTVHVSRLGGDEFALVIKGDISNEALLALGKHLCDLMHESFELSDMPIQIGATLGMATFPASADNATQLFEFADYALYQGKNHNPGTTCLFSASHREQLHTDGVTEQALRRANLETEFHVMFQPIIESCTCETVAFEALARWNSPELGAVSPAHFIPIAERIGMINKLTAPLLTHALQMALSWPAPIRLSFNLSAHDCATWESVSTIVEIIENSGFDASRLDLEITETAVMQDIAQVQQAIAQFRQLGCGISLDDFGTGFSSLSQLHALALTKLKIDRSFVTGVHDNPASYKIVKSLVALSLDMSLGCVIEGVETQDELNALTSLGCTMVQGYFYSPPISFAETLAWLETPDHERAFGYAAACRI”, the protein production entry is “failed”.
